This assay has as its target recombinant human IL-18 (human) (UniProt Q14116). The assay is described as follows: cell-based or functional assay.

recombinant human IL-18 (human), sequence (Q14116 37-193 limits assumed): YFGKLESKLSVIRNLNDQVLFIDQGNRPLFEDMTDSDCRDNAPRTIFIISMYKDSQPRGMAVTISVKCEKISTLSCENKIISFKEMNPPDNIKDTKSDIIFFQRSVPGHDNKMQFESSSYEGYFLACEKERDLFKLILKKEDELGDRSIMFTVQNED

For the substance “His6-tagged IL-18BPa transiently expressed in COS7 cells (IL-18BP-His6) (from UniProt O95998 31-194)”, the IFN-γ (ng/ml); bioassay with human IL-18 (20 ng/ml), LPS (2 µg/ml) and murine splenocytes (control 7.5) amounted to 0 ng/mL.

Consider “PNGase-treated IL-18BP-His6 (deglycosylated IL-18BPa-His6) (from UniProt O95998 31-194)”, for which the IFN-γ (ng/ml); bioassay with human IL-18 (20 ng/ml), LPS (2 µg/ml) and murine splenocytes (control 7.5) stood at 0 ng/mL.
